Test results reported in US20160347862A1 (Janssen / Centocor, published 2016).

Key:
human thrombin [1] = biological target: T1, human thrombin (human, UniProt P00734 314-363; P00734 364-622); assay: estimated from the rate of S2238 hydrolysis by thrombin
human thrombin [2] = biological target: T1, human thrombin; assay: cell-based or functional assay
human thrombin [3] = biological target: T1, human thrombin; assay: cell-based or functional assay; remark: listed apart in the source
prothrombin = prothrombin (Homo sapiens (Human), UniProt P00734 44-622); assay: pull-down with IgA-binding lectin agarose; supernatant on non-reducing SDS-PAGE
human thrombin [4] = biological target: T1, human thrombin; assay: Biacore, antibody as ligand, after storage for one month at 4° C.
human thrombin [5] = biological target: T1, human thrombin; assay: Biacore, antibody as ligand, ambient condition; Control (ambient condition), not 4° C. storage or light exposure
human thrombin [6] = biological target: T1, human thrombin; assay: ELISA binding to thrombin, four-parameter fit (log(agonist) vs. response -- Variable slope)
human thrombin [7] = biological target: T1, human thrombin; assay: Biacore, antibody as ligand, after exposure to light

| Kd (human thrombin [1]) | thrombin hydrolysis of FVIII (feedback activation of thrombin via Xase complex) (human thrombin [2]) | thrombin hydrolysis of platelet receptor PAR-1 peptide (activation of platelets) (human thrombin [2]) | EC50 (read off the curve), Vi/V0 of S2238 cleavage by thrombin (human thrombin [3]) | binding result (prothrombin) | Kd (human thrombin [4]) | Kd (human thrombin [5]) | EC50 (human thrombin [6]) | Kd (human thrombin [7]) | Binder |
| --- | --- | --- | --- | --- | --- | --- | --- | --- | --- |
| ~12 nM | 7 fold | 15 fold | ~10 nM | no binding | – | – | – | – | wild-type anti-exosite 1 IgA antibody (antibody, V domains shown, also called anti-thrombin IgA; anti-IIa IgA) VH: QVQLIQSGSAVKKPGASVRVSCKVSGYTLTEAAIHWVRQAPGKGLEWMGGLDPQDGETVYAQQFKGRVTMTEDRSTDTAYMEVNNLRSEDTATYYCTTGDFSEFEPFSMDYFHFWGQGTVVTVAS VL: EIVLTQSPATLSLSPGERATLSCRASQNVSSFLAWYQHKPGQAPRLLIYDASSRATDIPIRFSGSGSGTDFTLTISGLEPEDFAVYYCQQRRSWPPLTFGGGTKVEIKR |
| – | – | – | – | – | 1.74 nM | 1.77 nM | 0.0126 µg/mL | 1.8 nM | synthetic anti-exosite 1 IgG S30A variant antibody (antibody, V domains shown, also called ichorcumab S30A; ichorcumab) VH: QVQLIQSGSAVKKPGASVRVSCKVSGYTLTEAAIHWVRQAPGKGLEWMGGLDPQDGETVYAQQFKGRVTMTEDRSTDTAYMEVNNLRSEDTATYYCTTGDFSEFEPFSMDYFHFWGQGTVVTVAS VL: EIVLTQSPATLSLSPGERATLSCRASQNVASFLAWYQHKPGQAPRLLIYDASSRATDIPIRFSGSGSGTDFTLTISGLEPEDFAVYYCQQRRSWPPLTFGGGTKVEIKR |
